Assay results: patent US10555963B2, “Klotho protein and related compounds for the treatment and diagnosis of cancer” (TEL HASHOMER MEDICAL RESEARCH INFRASTRUCTURE AND SERVICES …, priority 2007, dated 2020)

Key:
IGF-1R = biological target: T1, IGF-1R (Homo sapiens, UniProt P08069); assay: Co-immunoprecipitation of HA-klotho protein and IGF-1R in MCF-7 cells; format: binding; settings: MCF-7 cells expressing HA-klotho protein
T1 construct: endogenous in cells; host or cells: MCF-7 cells expressing HA-klotho (stably or transiently)
Protocol: Cells were harvested as for Western blot, and 400 μg protein lysate were incubated with IgG-Sepharose (Sigma) or protein A/G (Pierce, Rockford, Ill.) beads at 4° C. for 1 h to eliminate non-specifically bound proteins. These beads were subsequently used as a negative control. The supernatants were then incubated for 4 hours with either 2 μg anti-HA antibody (Sigma) or 2 μl of anti-IGF-1β-R (Santa Cruz Biotechnology) and IgG-Sepharose or protein A/G (Pierce, Rockford, Ill.), respectively, was added. Following an overnight incubation, the beads were washed 6 times in RIPA buffer and the immunoprecipitated materials were separated by SDS-PAGE and detected by Western blotting.
As klotho protein can bind FGFR and other membrane proteins, binding of klotho protein to the IGF-1R was examined. Co-immunoprecipitation assays were conducted using MCF-7 cells either stably (FIG. 10) or transiently (data not shown) expressing HA-klotho protein. HA-klotho protein was detected by Western blotting following immunoprecipitation of the IGF-1R, and the IGF-1R was detected following immunoprecipitation using HA-directed antibody.

[1] = tested on: insulin pathway in HEK 293 cells; assay: Insulin pathway activation after klotho protein over-expression; format: cell-based, human; settings: insulin stimulation
[2] = tested on: p53 levels in MCF-7 cells; assay: Immunoblot of p53 and PARP after klotho protein over-expression; format: cell-based, human
Protocol: (§1) For breast cells, cells were harvested and lysed for total protein extraction in RIPA buffer (50 mM Tris-Cl pH 7.4, 150 mM NaCl, 1% NP-40, 0.25% Na-deoxycholate, 1 mM EDTA, 1 mM NaF) together with a protease inhibitor cocktail (Sigma). 50 μg protein extracts were loaded on 10% polyacrylamide gels, separated electrophoretically and blotted from the gel onto nitrocellulose membrane (Schleicher & Schuell Bioscience GmbH, Dassel, D E). The membranes were then immunoblotted with the indicated antibodies.
(§2) In fibroblasts, klotho protein reduces senescence through down-regulation of p53 (de Oliveira, 2006). The effects of klotho protein on p53 levels in MCF-7 breast cancer cells and HEK 293 were therefore analyzed.

p53 levels in HEK 293 = assay: as above; format: cell-based, human
Protocol: as §1, §2

[3] = tested on: IGF-1 pathway in MCF-7 cells; assay: IGF-1 pathway activation (Western blotting) after klotho protein over-expression; format: cell-based, human; settings: IGF-1 12.5 nM, 15 min
Protocol: as §1
MDA-MB-231 cells, which express lower levels of these receptors, were also examined. HEK 293 cells, whose growth is not dependent on the IGF-1 pathway (El-Shewy et al., 2007) and is not inhibited by klotho protein, served as control.
In order to elucidate klotho protein activity as an inhibitor of […] activation, MCF-7 cells were transfected with either pcDNA3-HA-KL or an empty vector, starved for 48 hours, treated with IGF-1 for the indicated times and doses, and analyzed using Western blotting for the level of expression and phosphorylation of IGF-1R.
(§3) In further experiments, MCF-7, MDA-MB-231 or HEK-293 cells were transfected with either pcDNA3-HA-KL or empty vector and treated with IGF-1 (12.5 nM, 15 min).

C/EBPβ in MCF-7 cells = assay: C/EBPβ levels after klotho protein over-expression; format: cell-based, human; settings: over-expression vs empty vector
Protocol: as §3
C/EBPβ is a down-stream target of the GSK3β pathway, which is suppressed following stimulation by IGF-1 (Li et al., 2007). […] The effects of over-expression of klotho protein on C/EBPβ levels were therefore analyzed.

T1 sequence (P08069 31-1367): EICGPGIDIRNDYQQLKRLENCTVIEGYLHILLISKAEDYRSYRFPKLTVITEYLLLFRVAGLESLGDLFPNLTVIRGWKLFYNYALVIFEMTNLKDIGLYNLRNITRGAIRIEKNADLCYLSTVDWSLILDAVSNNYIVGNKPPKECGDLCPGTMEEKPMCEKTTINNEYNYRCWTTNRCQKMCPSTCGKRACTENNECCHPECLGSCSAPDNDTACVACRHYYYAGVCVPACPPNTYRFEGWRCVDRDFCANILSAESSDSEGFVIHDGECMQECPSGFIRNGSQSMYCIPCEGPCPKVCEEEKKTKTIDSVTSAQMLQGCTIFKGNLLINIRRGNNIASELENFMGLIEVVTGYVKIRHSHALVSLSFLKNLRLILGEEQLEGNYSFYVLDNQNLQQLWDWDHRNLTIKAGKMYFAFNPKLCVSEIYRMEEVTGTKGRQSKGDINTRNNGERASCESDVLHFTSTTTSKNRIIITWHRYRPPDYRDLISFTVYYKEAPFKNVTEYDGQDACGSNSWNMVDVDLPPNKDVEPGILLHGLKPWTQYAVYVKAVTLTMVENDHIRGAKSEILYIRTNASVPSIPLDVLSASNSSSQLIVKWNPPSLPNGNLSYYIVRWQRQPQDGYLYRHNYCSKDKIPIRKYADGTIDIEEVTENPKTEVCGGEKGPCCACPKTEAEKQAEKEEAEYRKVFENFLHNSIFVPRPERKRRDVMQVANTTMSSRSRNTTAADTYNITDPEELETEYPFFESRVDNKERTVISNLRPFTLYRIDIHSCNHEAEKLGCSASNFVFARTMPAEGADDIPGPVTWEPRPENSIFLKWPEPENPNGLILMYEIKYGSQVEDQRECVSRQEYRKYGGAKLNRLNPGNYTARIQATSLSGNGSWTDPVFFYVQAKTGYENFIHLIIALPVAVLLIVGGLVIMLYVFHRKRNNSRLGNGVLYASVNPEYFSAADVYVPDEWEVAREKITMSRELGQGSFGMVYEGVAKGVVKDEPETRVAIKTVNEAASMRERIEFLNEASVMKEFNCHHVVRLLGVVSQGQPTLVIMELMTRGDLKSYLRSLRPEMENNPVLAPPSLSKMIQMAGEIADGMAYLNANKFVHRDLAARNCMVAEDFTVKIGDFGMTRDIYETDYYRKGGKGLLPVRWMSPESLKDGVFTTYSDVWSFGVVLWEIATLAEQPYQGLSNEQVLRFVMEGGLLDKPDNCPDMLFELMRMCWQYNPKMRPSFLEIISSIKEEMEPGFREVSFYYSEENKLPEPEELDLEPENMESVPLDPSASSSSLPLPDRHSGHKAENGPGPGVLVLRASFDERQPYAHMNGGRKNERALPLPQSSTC

B1: klotho protein: full length mouse Klotho (SEQ ID NO. 3) over-expressed in cells from HA-tagged expression vector pcDNA3-HA-KL (protein)
chain: MLARAPPRRPPRLVLLRLLLLHLLLLALRARCLSAEPGQGAQTWARFARAPAPEAAGLLHDTFPDGFLWAVGSAAYQTEGGWRQHGKGASIWDTFTHHSGAAPSDSPIVVAPSGAPSPPLSSTGDVASDSYNNVYRDTEGLRELGVTHYRFSISWARVLPNGTAGTPNREGLRYYRRLLERLRELGVQPVVTLYHWDLPQRLQDTYGGWANRALADHFRDYAELCFRHFGGQVKYWITIDNPYVVAWHGYATGRLAPGVRGSSRLGYLVAHNLLLAHAKVWHLYNTSFRPTQGGRVSIALSSHWINPRRMTDYNIRECQKSLDFVLGWFAKPIFIDGDYPESMKNNLSSLLPDFTESEKRLIRGTADFFALSFGPTLSFQLLDPNMKFRQLESPNLRQLLSWIDLEYNHPPIFIVENGWFVSGTTKRDDAKYMYYLKKFIMETLKAIRLDGVDVIGYTAWSLMDGFEWHRGYSIRRGLFYVDFLSQDKELLPKSSALFYQKLIEDNGFPPLPENQPLEGTFPCDFAWGVVDNYVQVDTTLSQFTDPNVYLWDVHHSKRLIKVDGVVAKKRKPYCVDFSAIRPQITLLREMRVTHFRFSLDWALILPLGNQTQVNHTVLHFYRCMISELVHANITPVVALWQPAAPHQGLPHALAKHGAWENPHTALAFADYANLCFKELGHWVNLWITMNEPNTRNMTYRAGHHLLRAHALAWHLYDDKFRAAQKGKISIALQADWIEPACPFSQNDKEVAERVLEFDIGWLAEPIFGSGDYPRVMRDWLNQKNNFLLPYFTEDEKKLVRGSFDFLAVSHYTTILVDWEKEDPMKYNDYLEVQEMTDITWLNSPSQVAVVPWGLRKVLNWLRFKYGDLPMYVTANGIDDDPHAEQDSLRIYYIKNYVNEALKAYVLDDINLCGYFAYSLSDRSAPKSGFYRYAANQFEPKPSMKHYRRIIDSNGFLGSGTLGRFCPEEYTVCTECGFFQTRKSLLVFISFLVFTFIISLALIFHYSKKGQRSYK
modifications: HA tag
interaction with the IGF-1 receptor (co-immunoprecipitation) (IGF-1R): interaction
activation of the insulin pathway [1]: not
expression or cleavage of PARP [2]: No changes
p53 levels [2]: increase
expression or cleavage of PARP (p53 levels in HEK 293): No changes
p53 levels (p53 levels in HEK 293): reduce
phosphorylation of IGF-1R, IRS-1, AKT1, GSK3β, ERK-1 and -2 [3]: reduced phosphorylation
C/EBPβ levels (C/EBPβ in MCF-7 cells): significant up-regulation
